# Test results: patent US20160091489
# Where two headings read alike, the source gives them in different places.
# Legend:
# [1] = tested on: Ramos cell surface (protein target not named in document) (Homo sapiens); settings: 3' biotin, Ramos cell capture efficiency in microfluidic device
# [2] = tested on: CEM cell surface receptor bound by sgc8 (protein not named in document) (Homo sapiens); assay: flow; settings: whole CEM cells
sequence,measurement,setting,value
AACACCGTGGAGGATAGTTCGGTGGCTGTTCAGGGTCTCCTCCCGGTG [AuNP-TD05],activity,[1]; 5' thiol-(PEG)24 on gold nanoparticle,90 % capture
AACACCGTGGAGGATAGTTCGGTGGCTGTTCAGGGTCTCCTCCCGGTGTTTTTTTTTT [TD05],activity,"[1]; 3' T10 linker, aptamer alone",41 % capture
ATCTAACTGCTGCGCCGCCGGGAAAATACTGTACGGTTAGA [AuNP-sgc8],Kd,"[2]; 5' thiol-(PEG)24 on 13.6 nm gold nanoparticle, about 95 aptamers per particle, 3' biotin or FITC, multivalent gold nanoparticle conjugate",0.1 nM
ATCTAACTGCTGCGCCGCCGGGAAAATACTGTACGGTTAGATTTTTTTTTT [sgc8],Kd,"[2]; 3' T10 linker as printed in Table 1, 3' biotin for capture, FITC instead of biotin for flow",3.9 nM
